Measurements: patent publication US20210101973A1 (NGM BIOPHARMACEUTICALS, published 2021)

T1: synthetic LEAP2 peptide (mature peptide of human LEAP2) (human)
T1 peptide: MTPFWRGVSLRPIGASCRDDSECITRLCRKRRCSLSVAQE


Molecular target: T1, synthetic LEAP2 peptide (mature peptide …)
Assay: cell-based or functional assay

EC50 of blocking LEAP2 inhibition of GHSR activity (antibody mixed with LEAP2, antagonist format, GHSR-stable cell line) | Binder
680 nM | anti-LEAP2 monoclonal antibody M18 (antibody, V domains shown) VH: EIQLQQSGPELMKPGASVKISCKASGYSFTNYYIHWVKQSHGKSLEWIGYIDPFNGGTNYNQKFKGKATLTVDKSSSTAYMHLSSLTFEDSAVYYCARRGYYYGFTYWGQGTLVTVSA VL: DIVLTQSPASLAVSLGQRATISCKASQSVDYDGDSYMNWYQQKPGQPPKLLIYTASNLESGIPARFSGSGSGTDFTLNIHPVEEEDAATYYCQQSNEDPYTFGGGTKLEIK
170 nM | anti-LEAP2 monoclonal antibody M1/M2 (antibody, V domains shown) VH: EVQLQQSGTVLARPGASVKMSCKASGYTFTSYWMHWVKQRPGQGLEWIGAIYPGNSDTSYKQKFKGKAKLTAVTSASTVYMELSSLTDEDSAVYYCTYGKEEYLFAMDYWGQGTSVTVSS VL: not shown
